Test results reported in paper PMC3569735.

Assays:
V1–V2 bnAb PG9 (human) = assay: SPR
mAb CH59 (human) = assay: SPR

AE.A244 gp120Δ11 (natural protein)
Kd (V1–V2 bnAb PG9 (human)): 42.1 nM | Kd (mAb CH59 (human)): 2.2 nM
